PMC6168263 (The Journal of Cell Biology, 2018)

B1: C-Bud6 (550-788) (domain or fragment, S. cerevisiae, UniProt P41697 550-788, looked up)
chain: AKNSSNRMYMEKSQTELGDLSDTLLSKVDDLQDVIEIMRKDVAERRSQPAKKKLETVSKDLENAQADVLKLQEFIDTEKPHWKKTWEAELDKVCEEQQFLTLQEELILDLKEDLGKALETFDLIKLCCEEQEKNPSRSKSNPILPIMRPGTFNQVREQVMVAVQSLNPDHDSRVEAIDKAEKMWEMERKLKASNEFDDELENFVGNSNLKKSGGFEEVERIRKQKDEANLRAYFGPGFT
B2: MBP-Hof1-FL-6His (natural protein, S. cerevisiae, UniProt Q05080 1-669, looked up)
chain: MSYSYEACFWDPNDNGVNILLGHISQGIRSCDSMILFFKQRSELEKDYARRLGAITGKLDKDIGTNMDYGKLNETFNVVLSVEKARAQSHSKQSEILFRQIYTDTKAFAANLQARYTTLSGKIERLRMDKFNKKKGCEVLQKKLQDAQIRFRDLQLNENNMIGAKRVEHNKRELLKWESNSQEYKVQLDVLKQEYKASQKFWIHEWAQLSCELQEMENARISFLQSKLQQFATSSMETYILEQTKMDMLTNHLNSFTAADEISTFSKENGTGRLKHKTSKGDMNSSANWAQMSSISTTSKKTESYMDNIRKLSSQLKETENKRKLASIDKYEKPLPSPEVTMATQFRNSTPVIRNETKVVANPTLSLRSSPVQLQSNVDDSVLRQKPDKPRPIVGEEQLKPDEDSKNPDEKGLMVHKRNQSLSSPSESSSSNPTDFSHIKKRQSMESMTTSVSSMANSIDDSQRFAKSWNSSNRKRKSMSHLQVPSSASSRSDDGGRTPNSAHNLNEDDYNTRRDTSTSTILFKPPVAVRGTSRGHTHRQSMIMQDSSNPIEDALYEMERIQSSSKPGTKTGNIMDERGVVRDRGITVTLPIVTSEGFPVIEYAKAMYPLIGNEAPGLANFHKGDYLLITEIVNKDWYKGEVYDNDRIDRNHRIGLIPYNFIQLLHQGL
B3: MBP-Hof1 F-BAR (1-275) (domain or fragment, S. cerevisiae, UniProt Q05080 1-275, looked up)
chain: MSYSYEACFWDPNDNGVNILLGHISQGIRSCDSMILFFKQRSELEKDYARRLGAITGKLDKDIGTNMDYGKLNETFNVVLSVEKARAQSHSKQSEILFRQIYTDTKAFAANLQARYTTLSGKIERLRMDKFNKKKGCEVLQKKLQDAQIRFRDLQLNENNMIGAKRVEHNKRELLKWESNSQEYKVQLDVLKQEYKASQKFWIHEWAQLSCELQEMENARISFLQSKLQQFATSSMETYILEQTKMDMLTNHLNSFTAADEISTFSKENGTGRLK
B4: 6His-Bnr1 FH2 (868-1,291) (domain or fragment, S. cerevisiae, UniProt P40450 868-1291, looked up)
chain: DLKPPPTEKRLKQIHWDKVEDIKDTLWEDTFQRQETIKELQTDGIFSQIEDIFKMKSPTKIANKRNAESSIALSSNNGKSSNELKKISFLSRDLAQQFGINLHMFSQLSDMEFVMKVLNCDNDIVQNVNILKFFCKEELVNIPKSMLNKYEPYSQGKDGKAVSDLQRADRIFLELCINLRFYWNARSKSLLTLSTYERDYYDLIFKLQKIDDAISHLNRSPKFKSLMFIITEIGNHMNKRIVKGIKLKSLTKLAFVRSSIDQNVSFLHFIEKVIRIKYPDIYGFVDDLKNIEDLGKISLEHVESECHEFHKKIEDLVTQFQVGKLSKEENLDPRDQIIKKVKFKINRAKTKSELLIGQCKLTLIDLNKLMKYYGEDPKDKESKNEFFQPFIEFLAMFKKCAKENIEKEEMERVYEQRKSLLDMR
B5: MBP-Hof1-NT-SNAP-549 (domain or fragment, S. cerevisiae, UniProt Q05080 1-340, looked up)
chain: MSYSYEACFWDPNDNGVNILLGHISQGIRSCDSMILFFKQRSELEKDYARRLGAITGKLDKDIGTNMDYGKLNETFNVVLSVEKARAQSHSKQSEILFRQIYTDTKAFAANLQARYTTLSGKIERLRMDKFNKKKGCEVLQKKLQDAQIRFRDLQLNENNMIGAKRVEHNKRELLKWESNSQEYKVQLDVLKQEYKASQKFWIHEWAQLSCELQEMENARISFLQSKLQQFATSSMETYILEQTKMDMLTNHLNSFTAADEISTFSKENGTGRLKHKTSKGDMNSSANWAQMSSISTTSKKTESYMDNIRKLSSQLKETENKRKLASIDKYEKPLPSPEV
modifications: BG-549 SNAP dye on the SNAP tag

Columns and labels:
649-biotin-SNAP-C-Bnr1 = 649-biotin-SNAP-C-Bnr1 (S. cerevisiae, UniProt P40450 757-1375, BG-649-PEG-Biotin on the SNAP tag); experiment: TIRF microscopy of labelled protein on formin-coated beads
[1] = biological target: 6His-Bnr1 FH1-FH2-C (residues 757-1,375) (S. cerevisiae, UniProt P40450 757-1375); experiment: negative-stain single-particle EM
[2] = biological target: B4; experiment: negative-stain single-particle EM
[3] = biological target: the molecule itself; experiment: negative-stain single-particle EM

Chain of 649-biotin-SNAP-C-Bnr1 (P40450 757-1375): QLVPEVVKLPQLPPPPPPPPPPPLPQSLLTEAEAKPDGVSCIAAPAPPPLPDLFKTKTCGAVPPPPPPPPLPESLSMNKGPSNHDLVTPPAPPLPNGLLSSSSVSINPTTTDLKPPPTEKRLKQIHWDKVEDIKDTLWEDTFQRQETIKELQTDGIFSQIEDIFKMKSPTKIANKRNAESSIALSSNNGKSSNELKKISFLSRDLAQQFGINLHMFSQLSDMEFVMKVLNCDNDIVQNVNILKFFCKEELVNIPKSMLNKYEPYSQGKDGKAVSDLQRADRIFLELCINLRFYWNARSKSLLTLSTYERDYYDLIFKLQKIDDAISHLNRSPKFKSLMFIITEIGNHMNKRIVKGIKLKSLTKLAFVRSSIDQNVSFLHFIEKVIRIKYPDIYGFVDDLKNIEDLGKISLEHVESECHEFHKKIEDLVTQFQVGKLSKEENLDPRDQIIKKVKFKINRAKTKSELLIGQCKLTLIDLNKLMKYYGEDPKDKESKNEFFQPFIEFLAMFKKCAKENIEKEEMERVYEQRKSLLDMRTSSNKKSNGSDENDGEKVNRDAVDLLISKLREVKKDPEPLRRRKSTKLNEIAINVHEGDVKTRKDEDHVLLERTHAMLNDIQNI
Chain of 6His-Bnr1 FH1-FH2-C (residues 757-1,375) (P40450 757-1375): as above

## B1
649-biotin-SNAP-C-Bnr1
  binding result: binds

## B2
[1]
  stoichiometry N: 2 C-Bnr1 dimers per Hof1-FL dimer

## B3
[2]
  stoichiometry N: 2 Bnr1 FH2 domains per Hof1 F-BAR domain

## B4
[3]
  stoichiometry N: 2

## B5
649-biotin-SNAP-C-Bnr1
  binding result: binds
